Test system: K4 kissing-loop RNA reporter
Assay: apparent KD of K4 kissing-loop reporter; higher = weaker reporter binding
Settings: Eterna round: R107
Protocol: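 RNA-MaP round R107: designed RNA switches with theophylline, tryptophan, arginine or FMN aptamers are transcribed on-chip within common flanks. They are titrated with a labelled K4 kissing-loop RNA reporter in RNA-MaP buffer (100 mM Tris pH 7.5, 80 mM KCl, 4 mM MgCl2), without ligand or with the indicated ligand. Median apparent KD per design.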

[1] = input ligand: theophylline 20 uM
[2] = input ligand: tryptophan 2.4 mM
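Also: bound reporter read as fluorescence of individual clusters on recovered sequencing chips by microscopy, with normalized cluster intensities fitted with a binding model.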

Row | Sequence | apparent KD of K4 kissing-loop reporter (input ligand: FMN 200 uM) [nM] | apparent KD of K4 kissing-loop reporter (input ligand: arginine 13.2 mM) [nM] | apparent KD of K4 kissing-loop reporter (input ligand: none) [nM] | apparent KD of K4 kissing-loop reporter [1] [nM] | apparent KD of K4 kissing-loop reporter [2] [nM]
1 | AGAUGACAGGGAGGAUAUCCUAAUAUGGGUGAUGUUAGCGAUGUUGAAGGUGUAGUGAUGUUAUGCGGAGAAGGCCCUGUUGUUU [BDazzled - #23 - Exc. FMN B] | 82.4 | 61.7 | 115 | 78.7 | 78.5
2 | AGCAAUAUCACGGCCGCCACUGAAUAUUGUUUUUAUAGUUAUAAAUCUUGCCAGUGAUGUUGGUUCAGGACCGGGUGAGUUAAUA [JR_SSTryptoB_Sub003] | 572 | 596 | 625 | 748 | 429
3 | AGCAGCAAAUCCUAGUGAUGUUAGGAUAUGUAGGAUAUCGGGAUACCGAGAAGGACAGAAGGAGGAGUGAUGUUCCUAAGCUGCA [FmnAX 24 #DoubleAptamer #DoubleK4 #SwitchBubble] | 143 | 112 | 114 | 122 | 107
4 | AGCCAUCACACGGCCGCCACUGAGUAGUGAUGUUGCUUGUAAAUCAGUCACCGCAUUAAUGCCGACAGGACCGGGUGCAUCGAGG [theeternabot_exclusion_KL_Trp_B_17] | 327 | 142 | 327 | 394 | 247
5 | AGCGAUGUUUUCUCUAAGAGUGAUGUUUUUCGAGGACCGGUACGGCCGCCACUCGAAUAAAGAGUGUGGUAGUGAGCUGUUGACU [qqmullin] | 622 | 256 | 451 | 442 | 278
6 | AGCUAUUAGACGGCCGCCACUUGCUCUGAGACCUGACAUGGAACCAGUGAUGUUGGUUUGCGUGUAAGGACCGGGUUUGGUGGCG [Tiesbi] | 107 | 92.2 | 99.1 | 88.7 | 104
7 | AGGAGUGAUGUUCCUACAUACACGGUCCGACGAGGACCGGUACGGCCGCCACUCGCGUCCCAGUGAUGUUGGGAUUUGGCGUACA [Exclusion Tryptophan A Gf 16] | 162 | 168 | 180 | 141 | 144
8 | AGGAUCACGUCAGUGAUGUUGACAAGAGAUACCAGAGACGAAAGUCUCCCUUGGCAGCUCAUUGUGAUCCGUGACAAAGGUCACA [Omei KL hio A SS C v2] | 353 | 293 | 413 | 593 | 186
9 | AGGAUCCACCAGUGAUGUUGGAAAUACUCCAAGGAUAUGACGAAAGUCAGAAGGUGGUAGACUGGACAAAGUCCAGUCGGAUCCA [FmnA 28 #SwitchBubble #K4Early] | 534 | 247 | 602 | 486 | 346
10 | AGGAUCCGUCGACAAAAGUCGACAUAAUCCGAGGAUAUGACGAAAGUCAGAAGGUGGACAUAAGUCCAGUGAUGUUGGAGGAUCC [FmnA 17 #SwitchBubble #K4Late] | 847 | 218 | 441 | 420 | 193
11 | AGGAUGUAGUGAUGUUAUAUAAGAAGUAAACGAGGACCGGUACGGCCGCCACUCGAAGCGGCUACUAGCGCGCCGCGAGGCGCGC [ExTryptoA.Cb] | 370 | 391 | 958 | 361 | 358
12 | AGGAUGUAGUGAUGUUAUAUAAGAAGUAAACGAGGACCGGUACGGCCGCCACUCGAAGCGGCUACUAGCGCGUUGCGAGGUGUGC [ExTryptoA.Ce] | 492 | 384 | 581 | 656 | 378
13 | AGGCACGAGCAAGGAUAUCGAGUAGAGUGAUGUUCUGCCUGGGUUGGCUCGAAAGGGCCUUCCCAGCGAGAAGGUGCUCGUGCCU [#2 Same State - FMN A Attempt #14 (HarryS)] | 219 | 325 | 300 | 1040 | 619
14 | AGGCACGAGCAAGGAUAUCGAGUAGAGUGAUGUUCUGCCUGGGUUGGCUCGUAAGGGCCUUCCCAGCGAGAAGGUGCUCGUGCCU [#2 Same State - FMN A Attempt #15 (HarryS)] | 221 | 632 | 877 | 581 | 757
15 | AGGCACGAGCAAGGAUAUUGAGUAGAGUGAUGUUCUGCCUGGGUUGGCUCGGAAGAGCCUUCUCAGCGAGAAGGUGCUCGUGCCU [#2 Same State - FMN A Attempt #24 (HarryS)] | 261 | 475 | 785 | 542 | 556
16 | AGGUGAGACUGAAGGAGCGAUCGCGCUAGUGAUGUUGGCGAGCAUGACAAAGUCAUGCACGAUCAGGUAGGUCGCAGUCUUACUC [Omei KL Arginine B SS B v1] | 128 | 103 | 137 | 123 | 141
17 | AGUACAGACACGGCCGCCACUCAGAAGAAGACAGUAGUGAUGUUACUGAUGGUGAGAAUAAUAAAGAGGACCGGGUGUUGUGCAA [#04 K4 Tryptophan B Same State] | 222 | 202 | 224 | 240 | 138
18 | AGUAGUUGGGCGGCCGCCACUGGAACAGCUUUGCCAAAGGCAGAGCACUAGAGUGAUGUUCUAGCUAGGACCGGGUCCAACUACA [whbob_SS_Tryp_B_t17] | 588 | 250 | 444 | 252 | 1220
19 | AGUAUAGAGUCGGCCGCCACUGGUUUUAUGUGUGUCAAAUCUGGAUCAAAGUGAUGUUUUGAGACUAGGACCGGGACCAUUGUUA [#06 K4 Tryptophan B Exclusion] | 160 | 139 | 145 | 131 | 206
20 | AGUAUGUAAUAUGGCAUAUUUAGAACUGAAGGAGCGCCGAAUAAGGCAGGUAGGUCGCGGAAAUAUGAGUGAUGUUCAUGUUUAA [KL-SSArg-A25] | 88 | 103 | 101 | 113 | 82.8
21 | AGUCCUAUGACGGCCGCCACUCCGGUUAUGAUUUGCCAAGUGAUGUUUGGGUAUCAGGCGAGGCGGAGGACCGGGUCGACCUGCC [theeternabot_exclusion_KL_Trp_B_18] | 171 | 139 | 151 | 129 | 152

Row | Sequence | apparent KD of K4 kissing-loop reporter (input ligand: FMN 200 uM) [nM] | apparent KD of K4 kissing-loop reporter (input ligand: arginine 13.2 mM) [nM] | apparent KD of K4 kissing-loop reporter (input ligand: none) [nM] | apparent KD of K4 kissing-loop reporter [1] [nM] | apparent KD of K4 kissing-loop reporter [2] [nM]
22 | AGUGAACGAGCGGCCGCCACUAAAUGAGUGAUGUUCGUGAGUAGUGCUGUUCUCAUGAUUGUUUUUAGGACCGGGUUCGAUGUUG [edcclmullin] | 937 | 739 | 762 | 576 | 662
23 | AGUGACGAGUGAUGUUCGUGAACACUGGAUACCAGCAGUCUUAUCUGCCCUUGGCAGCCAACGGGAACCGAAUGUUAAGACCUGU [theeternabot_exclusion_KL_Theo_A_4] | 132 | 114 | 129 | 149 | 121
24 | AGUGAUGUGGGAAGGAGCGGUAUAAGAAUUCAGUGAUGUUGAAGUGUUGCUGUAAUAAAGAGCCAGGUAGGUCGCCUAGAUGUUA [KL-XARG B30] | 811 | 775 | 940 | 1120 | 562
25 | AGUGAUGUGGGAAGGAGCGGUAUAUGAAUUCAGUGAUGUUGAAGUGAUGCUGUAAUGAUGUGCCAGGUAGGUCGCCUAGAUGUUA [KL-XARG B26] | 267 | 161 | 244 | 171 | 187
26 | AGUGAUGUGGGAAGGAGCGGUAUAUGAGUUCAGUGAUGUUGAAGUGAUGAUAUAGUGAUGUGCCAGGUAGGUCGCCUAGAUGUUA [KL-XARG-B5] | 281 | 144 | 210 | 146 | 202
27 | AGUGAUGUGGGAAGGAGCGGUUAAUGAAUUCAGUGAUGUUGAAGUGAUGCUGAAAUGAUGUGCCAGGUAGGUCGCCUAGAUGUUA [KL-XARG B28] | 308 | 164 | 245 | 164 | 203
28 | AGUGCCGAGUGUGAUACCAGCUUCAUGCAGUGAUGUUGCACACGAGUGAUGUUCGUCCGAGGCCCUUGGCAGCGCAGUCGCUCGA [Same State Theophylline B Gf 30] | 751 | 807 | 885 | 711 | 670
29 | AGUGUGCAAAAGCACACUCAGUACAAGGACAAGGAUAUCUACUAAUAGAGAAGGUGUCCUUUCCUUAGUGAUGUUAAGGAACUGA [Omei KL FMN A SS D v3] | 205 | 500 | 617 | 657 | 595
30 | AGUUCUUGCCGAAGGAGCGAGGCAGAGUGAUGUUCUGCAAGAGGUCGAAAGACCUCACUGCCUCAGGUAGGUCGCGGCAUGAACA [Omei KL Arginine B Exc A v4] | 801 | 509 | 930 | 602 | 1050
31 | AGUUUAGAGUGACUCGAUAAGAGUCACAAACGAGGACCGGUACGGCCGCCACUCGAAAUAACGAGAGUGAUGUUCUCGCUGGGUA [FiskerMod 4 - Jieux - Same State Tryptophan A] | 317 | 330 | 342 | 317 | 93.3
32 | AUACAUGUAAAUCUAUAUGUAUAAUGGAGCCGAGGACCGGUACGGCCGCCACUCGGAGUAAUCGGAGUGAUGUUCCGAAAUGUAC [KL-SSTryp-A sub13] | 93.7 | 119 | 104 | 123 | 64.6
33 | AUAUGCAGGAGAAGGAGCGUCGUUUCAAGUGAUGUUUGCAAGCGAGCUUACUAUAUAAGACGACAGGUAGGUCGCUCCUGCGUAA [#06 K4 Arginine B Exclusion] | 166 | 150 | 155 | 141 | 149
34 | AUAUUUAUUUAGUCACUUUUCAUAUUAUGUCAGGAUAUCGUAUUUUCGAGAAGGGACUCAUGGUAGUGAUGUUACCUAUUUCUCA [#03 K4 FMN A Exclusion] | 196 | 382 | 387 | 404 | 303
35 | AUCAUUAGUUCGGCCGCCACUCCAGUGAUGUUGGAGGGACGCAUAAUAUGCGCGCGGCUAACUAGGAGGACCGGGAACUUUAGGC [Maonce] | 82.8 | 115 | 133 | 86.9 | 156
36 | AUGAGGUGACUAAAUAAUAAGGGAAUUGAUACCAGACAGAAUUCUGUCCCUUGGCAGCAGUGAUGUUGUUGCAAGUCAGCUCAAA [AK1.1 Exc Theophylline A] | 265 | 186 | 206 | 198 | 212
37 | AUGCGCGCGGCGGCCGCCACUCGCAUGAGAGUGAUGUUCUCGCCGGGCCCGCAAGGGCCCGGUGUGAGGACCGGGCCGGGCUGCG [#2 Same State - Tryptophan B Attempt #18 (HarryS)] | 632 | 0.441 | 257 | 193 | 136
38 | AUGCGCGCGGCGGCCGCCACUCGCAUGAGAGUGAUGUUCUCGCCGUGCCCGUAAGGGUGCGGUGUGAGGACCGGGCCGGGCUGCG [#2 Same State - Tryptophan B Attempt #20 (HarryS)] | 204 | 107 | 227 | 37.5 | 239
39 | AUGGCACCUGCGGCCGCCACUCACUCCGGGCUGCUGGCCAGUGAUGUUGGUACGGCUGCCGGUUAGAGGACCGGGCAGGAGCUAA [Rienisdite] | 88.8 | 103 | 107 | 97.8 | 90.7
40 | AUGGGCGAGGUAACGUGGAUAUCUCGUCGCAAGGAUAUCUGGAAACAGAGAAGGUGCUACAUUACCGGCAGUGAUGUUGCUGACC | 959 | 231 | 559 | 263 | 131
41 | AUGGUAUUGCGAGGAUAUCCUUCCCACGUCGAAGUACCGUGCUUGAUGGAGUGAUGUUCGAUCAGAGGAGAAGGCGCGGUGUUAU [Same State FMN B GF22] | 706 | 368 | 572 | 645 | 639
42 | AUGUACACGAUAGUGUACUCCUAGUGAUGUUAGGAUAUGCAGAUAUGCAGAAGGGACAAGUCAUCUGACAAUAGUCGGAUGACAA [FmnAX 10 #OpenEnded #K4Early] | 179 | 85.6 | 109 | 114 | 91.5

— the supplement of paper PMC9170038
